{
  "source": "patent US20140004107A1",
  "biological_target": "human ST2 on human primary cells (human) (UniProt Q01638)",
  "sequence (Q01638 19-556 A78X)": "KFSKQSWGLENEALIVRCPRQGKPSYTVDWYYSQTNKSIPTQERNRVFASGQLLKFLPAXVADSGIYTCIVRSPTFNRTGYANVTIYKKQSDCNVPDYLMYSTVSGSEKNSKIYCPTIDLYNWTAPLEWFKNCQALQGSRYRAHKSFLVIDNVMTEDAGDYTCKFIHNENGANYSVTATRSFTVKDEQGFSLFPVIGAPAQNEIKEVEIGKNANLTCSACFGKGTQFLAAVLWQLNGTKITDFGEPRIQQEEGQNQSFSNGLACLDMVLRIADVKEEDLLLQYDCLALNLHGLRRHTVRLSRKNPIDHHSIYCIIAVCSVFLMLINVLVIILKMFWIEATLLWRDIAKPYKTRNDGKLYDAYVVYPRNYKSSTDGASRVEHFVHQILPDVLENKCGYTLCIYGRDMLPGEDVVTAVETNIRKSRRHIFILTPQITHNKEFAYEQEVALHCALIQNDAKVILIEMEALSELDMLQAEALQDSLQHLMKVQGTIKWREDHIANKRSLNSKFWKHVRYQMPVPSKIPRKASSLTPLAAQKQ",
  "experiment": "cell-based or functional assay",
  "data": [
    {"substance": "97203 (antibody)", "values": [
      {"measurement": "IC50 of inhibition of IL-33-dependent IFN-γ response of human NK cells (IL-33 10 ng/mL plus IL-12)", "result": 0.385, "unit": "µg/mL"}
    ]}
  ]
}
